Columns and labels:
[1] = target: TDP43 low complexity domain (TDP43-LCD) condensates (UniProt Q13148); assay: co-sedimentation; TDP43-LCD condensates (50 μM) mixed with spin-labeled Httex1(Q46)-35R1 monomers (pre-filtered, 100 kD) or fibrils (sonicated, unbundled), 20 μM starting concentration; 123,000g at 4 °C; Httex1 in pellet and supernatant quantified by EPR
[2] = target: TDP43 low complexity domain (TDP43-LCD) condensates (UniProt Q13148)
[3] = target: TDP43-LCD condensates, 2% Alexa Fluor 488 labeled (UniProt Q13148)

concentration of Httex1(Q46) in the pellet [1] [µM] | t1/2 of ThT fluorescence of 50 μM TDP43-LCD with 5 μM and 20 μM Httex1(Q46) fibrils (∼4 h and ∼1.5 h; ∼7 h without fibrils) [2] [h] | percent of TDP43-LCD condensates irregularly shaped after 4 h of co-incubation with Httex1(Q46) fibrils (∼10% without fibrils), fluorescence microscopy [3] [%] | Substance
< 0.3 |  |  | Httex1(Q46)-35R1 monomer (domain or fragment)
 | 4 | 60 | Httex1(Q46) fibrils, Alexa Fluor 594 labeled (domain or fragment)

Source: article PMC11408864
